Results taken from the DeepSol protein solubility set.

experiment: soluble on expression in E. coli; label from the status in PepcDB or PDB records

Soluble on expression in E. coli, not soluble:
MGSDKIHHHHHHMKAYLVGLYTLTPTHPGSGTELGVVDQPIQRERHTGFPVIWGQSLKGVLRSYLKLVEKVDEEKINKIFGPPTEKAHEQAGLISVGDAKILFFPVRSLKGVYAYVTSPLVLNRFKRDLELAGVKNFQTEIPELTDTAIASEEITVDNKVILEEFAILIQKDDKGILESVVKAIEQAFGNEMAEKIKGRIAIIPDDVFRDLVELSTEIVARIRINAETGTVETGGLWYEEYIPSDTLFYSLILVTPRAKDNDMALIKEVLGKINGKYLQIGGNETVGKGFVKVTLKEVTNNGGTHAK
MGSDKIHHHHHHMKCSKCSAEAIYYAKYNGLYLCRDHFNEMIEGRVKKEIRKQVEFHGDDVTISVALSGGKDSSVTLFLLHKILGNRKNMKIKAFTVDEGIDGYRPSGLESAKRLCTSLGIDHETISFYDSYGLTLDSIVKTNPVKIPCAYCGPLRRKLINEMADKQDADYVALGLNLDDYSQSILMNVAKGDFDRFIRMSPQTDRKVGLVRRIAPLRTILEKEVVLYAVTNDIPFDSSWCPYYSRAQRNVFREVVNKLSEENPSTKFAILKFFDRVRENITTGHEEVKLKRCKICGAPTERDVCTACSSLQEVNEMMAEH
MGSDKIHHHHHHMKEILTVTELNSYIANLLDSDPFLGQLWLRGEISGFRLYQQSGHMYFTLKDEDSTISAVMFKSRARGLKFKPKDGMEVLLRASVSVFARQGKYQLYVEEMQPYGIGGLFLYLEELKKKLAAKGYFAPERKKAIPAFVQRVGIVTSQDGAALRDICRILKQRHPGVEVVLAHSSVQGSEAPGELAEGLRLLNSYAEVELIIIGRGGGSYEDLMAFNSELVVQAIYESNIPVISAVGHEVDFTLADLVADLRAATPSQAASLAVADMQALSRQLDNYQQRLLRAMQRKLLYYTEIIDRLMMKRIWKQPRSLLHMREELLSQLEKSLSRGMAEIFREKKMKLSMNMAALDSLSPLKIMERGYVLLQKEGRIIRDEQQVQIGDRLEVAMRHADLEIEVIKKERVKRWKS
MGSDKIHHHHHHMKEKVFRDPVHNYIPVEDELIYDLINSKEFQRLRRIKQLGSSSFTFHGAEHSRFSHCLGVYYLARRVTNIFDKKYSDIWNSNESLLTMTAALLHDIGHGAYSHTFERLFDTNHETITQQIILSPETEINTILRRVSPDFPDKVASVINHTYSNKQVEQLISSQIDVDRMDYLLRDSYFTGASYGEFDLTRVLRVIRPIENGIAFSRDGMHAVEDYIISRYQMYMQVYFHPASRAMEVLLQNLLKRAKYLYPKEKEFFTVTSPHLIPFFENRVTLEDYLSLDDGVMNTYFQTWMQSADKILSDLASRFINRKVFKSITFDEKDLSNLEKLRKIVKDLGFDPTYYTALHLNFDLPYDVYKPDVQNPRTQIEMLQEDGSIAELSTLSPLVHTLSGTTHGDRRFYFPKEMLIKDGLFVEAKEKFSHYIKNKHFYNLRE
MGSDKIHHHHHHMKELFEFNNVSFSYKDVKEQALVDLNFSIKKGSLTLITGSSGSGKSTLLKLMNGLIPRLYDGKLVGEILFENNSLQSLTQESISKNIGYVSQDPRGQFFTTNTTSELVFSMENFGFTKEHMDKRINELAELLDLSNILDKNIFSLSSGERQKISIGCSLSLNSKLIILDEPSSNLDFQATKKLADLLCDLKNKGFTIVIAEHRFYYLKELIDQVLFVKNRTVKTTTIQLLKTENNNALRKFDIFNSSIEVPYIEKASADVLKVEEITYENILKDINFDVKVGDVIGLVGKNGVGKTTLLRILMKIIRPTKGKIIENKKNLSSPFLVMQEMDYQFFTESVRSELALGNEIVSKDQQEKILKKMELYKMKDQLPFDLSGGEKQRLLVSIASLSKTNLFLFDEPTSGLDYINMERIADLIKDLKEKGAVVIATHDPEFLYKICNRIIYLKNGGIKKDIKLRVEDSTLIEQIFNDITK
MGSDKIHHHHHHMKELRIDPITNDVVIFATDRLKRPLDTADIPNEDEETNEYDEECPFCKGNEAHATDALFEIDSEEGWLVKSVYNKFPIIDDMARDVYGVHEVMIESDKHNRSFYNMSQKEFEDVFFMYRNRFRDLSKDDKVEYVSIFKNFLRKAGASLMHPHAQILSMSFIPPEITNELLVSKEYYDSNKSSLYDDLIENEISLDRRVVYNGEAFLVLIPYATKYSGEVRIIFKDKIEFGELNDNNIQELSTIFEKLFKKLYNINGYMPFNLCIHTHPTKIETKSYFNVHMHIIPRKYNFGGFELGTNMYVSSMSPEDLTKKLKID
MGSDKIHHHHHHMKFFKSLLIAPAALGLMAPVAVNADTAFSPTTKLKSSVNFTVGSNADSADGDELHSSYEMKWKATTSFTGEDKLVGKFEIGSGKTLAGGIDPQSSKGGGKTPTLTDLYYQFPLAEDLTISIGPKMDGDQGLAGTTSVYGEPVLLAADGYYALAGEGGTGATIAYAGDNGWNASLNMTAADGDDASKGIFGDDTEDYVTAQLGFDGDGFGGTFTYSDSSDTYTAYGIGAYFQPESIPVTVSAYFDSMDPEKGEEDENWVVGVEADAGPGTLGVGVGTQKGTDEKLTYEAWYDYKIADGVKITPMIWTSEDAGVGGEDLSGAALNVKYKF
MGSDKIHHHHHHMKFNIKSVKNYRLPMSWQHIQKGTMYCSLINEFFADWFQKVLGDQWLMIGGLSAELELNLPLRHKIILMPEMTKNPTALFPANQNVTEEISLIQADPLQLPFVQQSIHACVLANTLNFTQHSHQLLGEIARVLENDGYLFISLFNPYSPLIFKQNLNHKNQTALPFKQYFTWRILDWIKLLNFEILDQVNLSEKKQQDCFSPLTLIVAQKRTYPFPLYKIKNKIVPYQSFQFMGENTKNAT
MGSDKIHHHHHHMKGIEVKQVTKSFDKKMILNGIGMTIEPNKIYGLLGRNGAGKSTLLSLLVNRIAPDTGEIRLDNKVIRDNDEQLSKMFLMSEVDLYPKNLKVKDVFKWTKSFYGGFDEELAQDLCEKFGLQTNIIFNKLSTGYRTIMKLIVALAVPVEYVFLDEPILGLDAGHREIFYNALVETYAENPRTFVISTHLIEEIANLIEHVLVIDHGRLIVDDETEKVLGEAYVVSGPEDKVDEYTQGLNVIGSDKLARIKASYVFGSLDNKPISDLINIDQMDLQTLFVNLTNGGNENE
MGSDKIHHHHHHMKGLYIGAAGMMNYMQHIQVHSNNVANAQTPGFKFDQLTSEVISRNKVNYQNGPVARQVGTIDYGVRPAATHINLTAGSSYITNRDRDFFMQDTDPTQGSNFFITAKNGEISLSRGGQFHSDQFGFLRTADGANLLSATGEAIQVGQKTSIRSEANGDLYNAETGQYLGRLGTKFVSANQADSLVKDGEGRLHVNGINTMNLPAGQGIIQNGVIETSNVDLGVEMVQLMDNQRMVQASKNVVNMFDKVYDKEATGLIRQ
MGSDKIHHHHHHMKGSTDLESRLPSAGAYGDRFASYFKLAKASVFKTGSLRTGEIAYTETSGYCHKPEPSVPVPPEDAFLVQTQLQDYPNHISWEDGRPGIVGTLRAGHTILRDLQRKPNAIIMGPHHTVHFYIPRATFNTVAEDLEARSISELAYVPAQPIDDDVIRGLIGTVRAAIKAPEETNRLFLDHLMMAAAVHLAQTYGGLKPRSLQHRGGLAPWQARLAIELLEGDLTGQLPLKDVAAACKLSVSYFSKAFCKTTGLAPHQWLLYRRVERAKSAMINEKTTLAEVALSCGFSDQSHFTRVFVRLVGTSPATWRRARNL
MGSDKIHHHHHHMKHESTKIPLVIFMHIPKTGGITLRNILDQQYRSEHILRLPQKNKLDNLLQKKGANIKKLQCVYGHHRFGVHEYFQQPFTYITMLRHPVERIISTYYFILQNERNRMHQKVKPLTFEQFVQSTDPDLQVPLTNHQTRYLSGERKPNLNKALQHMDTHFSVVGITELYNESLFIMKKKLGWDHISYQKKNVTYYRYRQTDIGLDTIEIIKRKNPLDLHLYETAKEKLQEHIKRLDSGARKELQQFLQDQNGFGPHG
MGSDKIHHHHHHMKHFKYGAIALTLISGLAACGGSGSDEPEVVVPETGFSFDADALIVNLSDEVIVKGYSTLADRGEALLQATQTLVATPTQANLEAAQSAWKAARQPWEQGESHIFGPVDSLGIDPHLDSWPLNTTDLKTVLINSSGFDAETIKGWNDDVQGFHTMEFLLFGDGMDDNVKQIDELTANERDYLMGLAEVFRDYTKQLADAWLVSHDGQSGKAYGELLKSPGVDGNTFYSSQVGVLEELIKGMIGIVDEVGNGKIADPFGGSLASADTSKVESQYSWNSLTDFSDNIIGVRNVYQGEFTGEADKQGIIDFVRAADSELASRIAAEIDAAILQIHAIEGTDKMPFRQAIKDEAGRARIQKAVDALATLQASLENQVLPLLKEWKV
MGSDKIHHHHHHMKIAQIAPLFEAVPPRLYGGTERVVASICDALVKAGHQVDLYASGDSQSKARLIPCRERALRLDPAPLKSDIAAHYTLLDEVRRHAGEYDILHFHTDMLHFPFFEPIASKTLTTLHGRLDMADLPNAFKRWRQFPLVSISNDQRRALPGANWAGTVYHGLDPALYRFNPNPQGGYLAFLGRISPEKRPDRAIAIARKAGIPLKIAAKVDAADLNYYNDVIKPLLNQADVEFIGEITDAQKNDFLGNALALLFPVDWPEPFGLVMIEAMACGTPVIAWRCGSVPEIIEPGRNGFIVTDEHQAAAACHAATTLDRAKVREAFDMRFTSDVMAEHYLKLYKRLAASANDDNLMESQVG
MGSDKIHHHHHHMKIAVVGGTFWDIFIFGENPHSSTIRESPGGSGLNVAYGLFLLGHTVDFYSNIGDDWRGKQIVELLEKASFDTSHMSTIQGGKTGIFIAHNDKPLAVDPGVNRKEMKLPSLSEYDLVFVTGEIPEKTIRKICENTKNVILDVGPGARFDTSDLNALVIGNERECSFRKCDVVKMGSKGARWGEVYVPGNGISYPHSIGLGDLFDIVFVHHLPLGKSKKEILEEAVKCSQILGQKENVTPFERISFLEPLSTKDDTLECPDESKDASHHGG
MGSDKIHHHHHHMKIDSEHLEILAVIVEKGGLTEGAEALGKSQPSVSRTMALLEERIGTPLFEAGRRPLRPTELGNQLARLGAKIRTQNLEASRLVQRYRQGQAGRLRLGGTPIFFDGVVAGMVAEFQNRHSDVQITQTYGYFEDLSAGLRSGALDLAILPMHANMIPADMQFTPLLAGRNVIVGSATHPLARRGAITLADIEPYSWIAPPPDSPLFRDLQRSLKSIGLDDFKVSFSGGTLASIFSVVLGSDSLTVLPYSVVFTHQRVIPLQALPLRIEHPDRQLGLLTATERMPPPALERFVAFVTEKFKHLSTRMEHEQQVTRRRG
MGSDKIHHHHHHMKIFNAMFSKVNGGLEQVFLNYIPALSSQGNLVIPIIHPKAEIRNSCPQDHLITVHNFNQHDFFAIHRLKKLIKIHQPDCIITHSYRAAYLFKKTRTKVPKIAVCHVKGHYDFGTDAIIALTEQMRRDIINSGIEERRVFTIPNLIHIPDGLQYREPKNNQIPIIGVCARFAAIKGVDVFINALAELKKRGVAFQAKIAGDGKEKEQYIELIRHHGLEHEITLLGWIEDKESFYKSIDIFCLPSREESFGLVVLESMMHSLPMVLTRLSGPLEIAGNSGCALFVPPEDPVSMADGLERLLRDKDLSKQLALKAFQRVQHYSSTKVAPMLHKVLEKACEINQQ
MGSDKIHHHHHHMKILIVDDEYRKVEEIFNVLADAGISCAGVKHETTAQAARILLRRQDYDLLIIDLHLPAAIGGKPDNEGGITFLDMIRLDEKVKLPASVLFITGREELIESAYTKVIERGAILCQYHSDSDEWKKILIGRAKYDSQRLARDEQVDVVIVTALRNPELDAVLNLPYQWIQKRIKDDPLTYHYGKIPRIDSNISVVAVSPNRKGMPSSAAVASKLALMFKPKILLMVGICAGIRDKCSLGDIIVADPTWDWGSGKHGLDSNGSPVFHAAPRQVPLNSALSQVASDLANDESVMNGIRKGWSEEVPGGKLKVHIGPMASGASVIADDRSARLIAIQQHRELIAIEMEAYAVMAAAEYTSIPNLTAMIIKSVCDFADAEKNDTWQKYASYTSAAFADQLFRNSNISV
